In assay [1] the target is HIV-1 Tat protein (recombinant, native, biologically active) (HIV-1) (UniProt Q73370). The assay is described as follows: ELISA; wells coated with native Tat, antibody used for detection. A general note: In an ELISA, binding on a coated surface is turned into a signal by an enzyme label.
Assay [2] deals with Tat-cys22 (transactivation mutant, cysteine 22 substituted by glycine) (HIV-1). The assay is described as follows: ELISA; wells coated with Tat-cys22, antibody used for detection.
For assay [3], the target named is Tat (36-50) peptide (core region) (HIV-1). Nature of the assay: ELISA; plate coated with Tat peptide, antibody used for detection.
In assay [4] the target is Tat (56-70) peptide (glutamine-rich region) (HIV-1). The assay is described as above.
Assay [5] addresses Tat (83-102) peptide (C-terminal domain) (HIV-1). The description is as above.
The target of assay [6] is Tat (1-20) peptide (N-terminal domain) (HIV-1). The description is as above.
In assay [7] the target is Tat (21-58) peptide (cysteine, core, and basic regions) (HIV-1). Described as above.
Assay [8] addresses Tat (21-40) peptide (cysteine-rich region-transactivation domain) (HIV-1). Described as above.
In assay [9] the target is Tat (65-80) peptide (RGD sequence) (HIV-1). The assay is described as above.
Assay [10] deals with Tat (73-86) peptide (HIV-1). The description is as above.
Assay [11] has as its target Tat (46-60) peptide (basic region-nuclear localisation signal) (HIV-1). Described as above.
The target of assay [12] is HIV-1 Tat protein (recombinant, native, biologically active) (HIV-1) (UniProt Q73370). The assay is described as follows: ELISA; plate coated with Tat, antibody used for detection.
The target in the next assay is oxidised Tat (HIV-1) (UniProt Q73370). The assay is described as follows: ELISA; wells coated with oxidised Tat, antibody used for detection.
The target of assay [13] is bovine serum albumin (bovine) (UniProt P02769). The assay is described as follows: ELISA; uncoated (BSA-blocked) well incubated with Tat, detected with anti-Tat.
Chain of bovine serum albumin (bovine) (P02769 25-607 limits assumed): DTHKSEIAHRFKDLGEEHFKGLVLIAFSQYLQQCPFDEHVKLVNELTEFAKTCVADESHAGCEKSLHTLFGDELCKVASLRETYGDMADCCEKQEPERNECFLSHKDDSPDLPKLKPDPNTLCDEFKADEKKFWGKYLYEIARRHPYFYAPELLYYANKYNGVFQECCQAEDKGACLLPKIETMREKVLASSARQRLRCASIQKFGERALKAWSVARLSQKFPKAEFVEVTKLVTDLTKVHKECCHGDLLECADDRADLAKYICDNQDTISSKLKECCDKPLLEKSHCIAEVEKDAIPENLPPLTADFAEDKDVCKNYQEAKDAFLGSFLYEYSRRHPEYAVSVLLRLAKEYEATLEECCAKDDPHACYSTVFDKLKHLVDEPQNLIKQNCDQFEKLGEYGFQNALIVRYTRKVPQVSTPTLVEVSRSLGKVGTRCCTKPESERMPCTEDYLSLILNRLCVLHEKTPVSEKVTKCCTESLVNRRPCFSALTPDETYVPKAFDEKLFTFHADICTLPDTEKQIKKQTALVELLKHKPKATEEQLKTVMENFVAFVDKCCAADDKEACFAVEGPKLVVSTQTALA

The values below come from patent publication US9969780.

In the case of CTR isot. (isotype control antibody), the ELISA signal was 0.051 in assay [1]; 0.026 in [2]; 0 in [3]; 0 in assay [4]; 0 in [5]; 0.006 in [6]. In addition, the ELISA signal is 0.108 in [7]; 0.082 in assay [8]; 0 in [9]; 0.019 in assay [10]; 0.063 in [11]; 0.081 in assay [12]. The substance further registered an ELISA signal with oxidised Tat (HIV-1) of 0.016.
In turn, “HIV-1 Tat protein (recombinant, native, biologically active) (from UniProt Q73370 1-100)” came in with an ELISA OD in [13] of 0.431 OD.
As to “monoclonal anti-CCR5 antibody (Pharmingen), directed against the CCR5 second extracellular loop”, the ELISA signal was 1.24 in assay [1]; 0.75 in assay [2]; 0 in [3]; 0.147 in assay [4]; 0 in assay [5]; 0 in assay [6]. Further, the ELISA signal in assay [7] came to 3; in assay [8] it was 0; in [9] it was 0; in assay [10] it was 0; in assay [11] it was 0.466; in assay [12], 1.45. Besides, the ELISA signal in the assay with oxidised Tat (HIV-1) came to 0.128.
